Laboratory results taken from IntAct's records for PubMed 31260151.

B1: Serine protease HTRA3 (Homo sapiens), P83110-2 (parent)
chain: MQARALLLAALAALALAREPPAAPCPARCDVSRCPSPRCPGGYVPDLCNCCLVCAASEGEPCGGPLDSPCGESLECVRGLCRCRWSHAVCGTDGHTYANVCALQAASRRALQLSGTPVRQLQKGACPLGLHQLSSPRYKFNFIADVVEKIAPAVVHIELFLRHPLFGRNVPLSSGSGFIMSEAGLIITNAHVVSSNSAAPGRQQLKVQLQNGDSYEATIKDIDKKSDIATIKIHPKKKLPVLLLGHSADLRPGEFVVAIGSPFALQNTVTTGIVSTAQREGRELGLRDSDMDYIQTDAIINYGNSGGPLVNLDGEVIGINTLKVTAGISFAIPSDRITRFLTEFQDKQIKAPSLAVH
B2: Serine protease HTRA3 (Homo sapiens), P83110-1 (parent)
chain: MQARALLLAALAALALAREPPAAPCPARCDVSRCPSPRCPGGYVPDLCNCCLVCAASEGEPCGGPLDSPCGESLECVRGLCRCRWSHAVCGTDGHTYANVCALQAASRRALQLSGTPVRQLQKGACPLGLHQLSSPRYKFNFIADVVEKIAPAVVHIELFLRHPLFGRNVPLSSGSGFIMSEAGLIITNAHVVSSNSAAPGRQQLKVQLQNGDSYEATIKDIDKKSDIATIKIHPKKKLPVLLLGHSADLRPGEFVVAIGSPFALQNTVTTGIVSTAQREGRELGLRDSDMDYIQTDAIINYGNSGGPLVNLDGEVIGINTLKVTAGISFAIPSDRITRFLTEFQDKQIKDWKKRFIGIRMRTITPSLVDELKASNPDFPEVSSGIYVQEVAPNSPSQRGGIQDGDIIVKVNGRPLVDSSELQEAVLTESPLLLEVRRGNDDLLFSIAPEVVM

Variants of: B1
Conditions: with xiap_human XIAP
Target sequence in this assay (P98170 whole entry): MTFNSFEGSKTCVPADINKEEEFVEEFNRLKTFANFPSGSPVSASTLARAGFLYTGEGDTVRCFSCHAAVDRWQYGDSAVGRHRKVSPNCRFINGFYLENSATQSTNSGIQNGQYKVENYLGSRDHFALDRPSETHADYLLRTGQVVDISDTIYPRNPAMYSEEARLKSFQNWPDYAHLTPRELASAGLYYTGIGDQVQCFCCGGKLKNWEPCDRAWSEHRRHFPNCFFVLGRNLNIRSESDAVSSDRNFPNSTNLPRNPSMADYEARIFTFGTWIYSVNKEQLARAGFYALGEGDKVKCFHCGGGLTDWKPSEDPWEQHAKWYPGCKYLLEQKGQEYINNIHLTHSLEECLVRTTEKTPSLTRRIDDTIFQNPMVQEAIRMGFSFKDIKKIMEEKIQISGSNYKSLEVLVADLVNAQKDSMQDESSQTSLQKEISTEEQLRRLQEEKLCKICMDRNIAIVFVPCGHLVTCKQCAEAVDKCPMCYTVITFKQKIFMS

Question: For MQARALLLAALAALALAREPPAAPCPARCDVSRCPSPRCPGGYVPDLCNCCLVCAASEGEPCGGPLDSPCGESLECVRGLCRCRWSHAVCGTDGHTYANVCALQAASRRALQLSGTPVRQLQKGACPLGLHQLSSPRYKFNFIADVVEKIAPAVVHIELFLRHPLFGRNVPLSSGSGFIMSEAGLIITNAHVVSSNSAAPGRQQLKVQLQNGDSYEATIKDIDKKSDIATIKIHPKKKLPVLLLGHSADLRPGEFVVAIGSPFALQNTVTTGIVSTAQREGRELGLRDSDMDYIQTDAIINYGNAGGPLVNLDGEVIGINTLKVTAGISFAIPSDRITRFLTEFQDKQIKAPSLAVH [S305A], which “effect of a mutation on the interaction” value is on record?
Answer: The value was “decreasing interaction strength”.

Variants of: B2
Conditions: with xiap_human XIAP
Target sequence in this assay (P98170 whole entry): as the sequence (P98170 whole entry) above

Question: For MQARALLLAALAALALAREPPAAPCPARCDVSRCPSPRCPGGYVPDLCNCCLVCAASEGEPCGGPLDSPCGESLECVRGLCRCRWSHAVCGTDGHTYANVCALQAASRRALQLSGTPVRQLQKGACPLGLHQLSSPRYKFNFIADVVEKIAPAVVHIELFLRHPLFGRNVPLSSGSGFIMSEAGLIITNAHVVSSNSAAPGRQQLKVQLQNGDSYEATIKDIDKKSDIATIKIHPKKKLPVLLLGHSADLRPGEFVVAIGSPFALQNTVTTGIVSTAQREGRELGLRDSDMDYIQTDAIINYGNAGGPLVNLDGEVIGINTLKVTAGISFAIPSDRITRFLTEFQDKQIKDWKKRFIGIRMRTITPSLVDELKASNPDFPEVSSGIYVQEVAPNSPSQRGGIQDGDIIVKVNGRPLVDSSELQEAVLTESPLLLEVRRGNDDLLFSIAPEVVM [S305A], which “effect of a mutation on the interaction” value is on record?
Answer: Its value is “decreasing interaction strength”.
